Results taken from patent US20240228980A1.

Biological target: PB1 (influenza A/WSN/1933 polymerase subunit) (influenza A virus A/WSN/1933) (UniProt P03430)
Test: cell-based or functional assay

PB1 (influenza A/WSN/1933 polymerase subunit) (influenza A virus A/WSN/1933), sequence (P03430 whole entry): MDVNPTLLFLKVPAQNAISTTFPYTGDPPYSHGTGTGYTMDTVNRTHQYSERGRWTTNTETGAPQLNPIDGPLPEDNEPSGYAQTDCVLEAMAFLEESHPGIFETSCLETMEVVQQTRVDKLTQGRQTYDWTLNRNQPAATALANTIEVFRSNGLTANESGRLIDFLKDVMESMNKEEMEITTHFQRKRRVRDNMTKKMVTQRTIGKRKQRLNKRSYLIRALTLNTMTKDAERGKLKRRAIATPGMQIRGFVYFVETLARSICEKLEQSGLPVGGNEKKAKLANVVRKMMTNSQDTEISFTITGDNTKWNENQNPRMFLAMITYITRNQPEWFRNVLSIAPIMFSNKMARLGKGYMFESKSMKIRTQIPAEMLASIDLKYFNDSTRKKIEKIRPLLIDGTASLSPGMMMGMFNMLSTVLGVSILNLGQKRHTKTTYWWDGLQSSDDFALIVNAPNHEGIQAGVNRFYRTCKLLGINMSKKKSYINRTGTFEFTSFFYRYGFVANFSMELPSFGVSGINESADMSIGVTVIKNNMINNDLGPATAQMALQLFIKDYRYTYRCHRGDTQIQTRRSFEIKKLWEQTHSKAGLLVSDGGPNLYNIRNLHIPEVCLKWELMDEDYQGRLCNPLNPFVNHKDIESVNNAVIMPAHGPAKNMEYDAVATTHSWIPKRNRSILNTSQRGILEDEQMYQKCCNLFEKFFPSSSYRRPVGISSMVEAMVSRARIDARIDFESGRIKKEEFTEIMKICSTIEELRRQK

Substance	virus titers
PB2 195/2223 DPR	50%
PB2 416/2189 DPR (from UniProt P03427 1-131)	50%
